From paper PMC12583094 (2025)

Target: Myeloperoxidase (Homo sapiens, UniProt P05164)
Test: SPR

Sequence of Myeloperoxidase (P05164 165-273): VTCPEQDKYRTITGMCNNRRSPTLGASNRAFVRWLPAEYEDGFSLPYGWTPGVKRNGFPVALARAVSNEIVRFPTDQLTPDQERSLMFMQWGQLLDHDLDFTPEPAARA

Kd: 183 µM
B1: VPNHFNAP peptide (peptide)
chain: VPNHFNAP
